In patent US9555139B2, “Binding ligand linked drug delivery conjugates of tubulysins” (Endocyte, Inc., priority 2007, dated 2017):

What was measured:
[1] = Serum binding, human serum; assay type: in vitro ADME
Experimental: (§1) METHOD: Serum binding against different species. Compounds are tested with 30K NMWL, subjected to Microcon filtration (10,000 g for 30 minutes), and compounds are detected by HPLC.

[2] = Body weight change of Balb/c mice at doses above therapeutic doses (FIG. 14); conditions: intravenous, three times in one week (FIG. 14)
Experimental: METHOD: Toxicity as Measured by Weight Loss. The percentage weight change of the mice was determined in mice (5 mice/group) on selected days post-tumor inoculation (PTI), and graphed.
Each dose was administered three times, every other day, as indicated by the arrows. EC0305 was administered at (Δ) 2 μmol/kg TIW; (∇) 2.5 μmol/kg TIW; and (□) 3 μmol/kg.

[3] = Human serum stability; assay type: in vitro ADME
Source text: METHOD: Human serum stability.

[4] = Toxicity as measured by weight loss / organ evaluation in tumor-bearing mice; assay type: in vivo
Experimental: METHOD: Drug Toxicity determinations. Persistent drug toxicity was assessed by collecting blood via cardiac puncture and submitting the serum for independent analysis of blood urea nitrogen (BUN), creatinine, total protein, AST-SGOT, ALT-SGPT plus a standard hematological cell panel at Ani-Lytics, Inc. (Gaithersburg, Md.). In addition, histopathologic evaluation of formalin-fixed heart, lungs, liver, spleen, kidney, intestine, skeletal muscle and bone (tibia/fibula) were conducted by board-certified pathologists at Animal Reference Pathology Laboratories (ARUP; Salt Lake City, Utah).
METHOD: Toxicity as Measured by Weight Loss.

[5] = Serum binding against different species; assay type: in vitro ADME; conditions: human, dog, Balb/c mouse, rat, rabbit, fetal calf serum
Experimental: as §1

[6] = biological target: T1, folate receptors (FRs) (Homo sapiens, UniProt P15328); test: Relative affinity assay (3H-folic acid displacement on KB cells); assay type: binding; conditions: 10% serum/FDRPMI; folic acid set to 1
T1 construct: FR-positive KB cells were heavily seeded into 24-well cell culture plates; endogenous in cells; host or cells: KB cells
T1 sequence (P15328 25-234): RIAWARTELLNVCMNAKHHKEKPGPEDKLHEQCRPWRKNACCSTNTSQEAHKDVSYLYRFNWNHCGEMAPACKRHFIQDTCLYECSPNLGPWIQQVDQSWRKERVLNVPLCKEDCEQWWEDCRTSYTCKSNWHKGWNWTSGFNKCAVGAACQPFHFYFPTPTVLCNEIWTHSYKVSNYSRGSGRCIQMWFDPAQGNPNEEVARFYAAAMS
Experimental: METHOD: Relative Affinity Assay. The affinity for folate receptors (FRs) relative to folate was determined according to a previously described method (Westerhof, G. R., J. H. Schornagel, et al. (1995) Mol. Pharm. 48: 459-471) with slight modification. Briefly, FR-positive KB cells were heavily seeded into 24-well cell culture plates and allowed to adhere to the plastic for 18 h. Spent incubation media was replaced in designated wells with folate-free RPMI (FFRPMI) supplemented with 100 nM ^3H-folic acid in the absence and presence of increasing concentrations of test article or folic acid. Cells were incubated for 60 min at 37° C. and then rinsed 3 times with PBS, pH 7.4. Five hundred microliters of 1% SDS in PBS, pH 7.4, were added per well. Cell lysates were then collected and added to individual vials containing 5 mL of scintillation cocktail, and then counted for radioactivity. Negative control tubes contained only the ^3H-folic acid in FFRPMI (no competitor). Positive control tubes contained a final concentration of 1 mM folic acid, and CPMs measured in these samples (representing non-specific binding of label) were subtracted from all samples.

[7] = tested on: s.c. tumors; test: Inhibition of tumor growth in mice (tumor model not stated, FIG. 9 and 11); assay type: in vivo; conditions: tolerable and highly toxic dose levels (0.1, 0.2, 0.5 μmol/kg TIW), dosing terminated early
Experimental: METHOD: Inhibition of Tumor Growth in Mice. Four to seven week-old mice (Balb/c or nu/nu strains) were purchased from Harlan Sprague Dawley, Inc. (Indianapolis, Ind.). Normal rodent chow contains a high concentration of folic acid (6 mg/kg chow); accordingly, mice used were maintained on the folate-free diet (Harlan diet #TD00434) for 1 week before tumor implantation to achieve serum folate concentrations close to the range of normal human serum. For tumor cell inoculation, 1×10^6 M109 cells (Balb/c strain) or 1×10^6 KB cells (nu/nu strain) in 100 μL were injected in the subcutis of the dorsal medial area. Tumors were measured in two perpendicular directions every 2-3 days using a caliper, and their volumes were calculated as 0.5×L×W^2, where L=measurement of longest axis in mm and W=measurement of axis perpendicular to L in mm. […] Dosing solutions were prepared fresh each day in PBS and administered through the lateral tail vein of the mice.

**Q.** Which fraction unbound [1] does the source give for `CCCC(=O)OCN(C(=O)[C@@H](NC(=O)[C@H]1CCCCN1C)C(C)CC)[C@H](C[C@@H](OC(C)=O)c1nc(C(=O)N[C@@H](Cc2ccc(O)cc2)C[C@H](C)C(=O)NNC(=O)OCCSSC[C@H](NC(=O)[C@H](CC(=O)O)NC(=O)[C@H](CCCNC(=N)N)NC(=O)[C@H](CC(=O)O)NC(=O)CC[C@H](NC(=O)c2ccc(NCc3cnc4nc(N)[nH]c(=O)c4n3)cc2)C(=O)O)C(=O)O)cs1)C(C)C` (stereo partly drawn) [EC0305] here?
**A.** 0.33

**Q.** What about the serum binding [1] of the same compound?
**A.** 67%

**Q.** What about the “dose at which toxicity begins, as determined by changes in weight” value [2] of the same compound?
**A.** ≥ 2.5 µmol/kg

**Q.** And the half-life [3]?
**A.** ~20 h

**Q.** What about the “weight loss or major organ tissue degeneration” value ([4]; Balb/c mice with M109 tumors (FIG. 8)) of the same compound?
**A.** apparent absence of weight loss or major organ tissue degeneration

**Q.** And the “gross toxicity as determined by changes in weight” value ([4]; M109 tumor mice (FIG. 13), 2 μmol/kg TIW, 2 wks)?
**A.** not accompanied by any observed gross toxicity

**Q.** And the “weight loss or major organ tissue degeneration” value ([4]; nu/nu mice with KB tumors (FIG. 6))?
**A.** apparent absence of weight loss or major organ tissue degeneration

**Q.** What about the “serum binding in various species” value [5] of the same compound?
**A.** low serum binding

**Q.** For `Nc1nc2ncc(CNc3ccc(C(=O)N[C@@H](CCC(=O)O)C(=O)O)cc3)nc2c(=O)[nH]1` [folic acid], which relative affinity [6] is on record?
**A.** 1

**Q.** For `CCCC(=O)OCN(C(=O)[C@@H](NC(=O)[C@H]1CCCCN1C)C(C)CC)[C@H](C[C@@H](OC(C)=O)c1nc(C(=O)N[C@@H](Cc2ccc(O)cc2)C[C@H](C)C(=O)O)cs1)C(C)C` (stereo partly drawn) [tubulysin B, reference compound], which “toxicity (dosing terminated early in each cohort)” value ([4]; FIG. 9 and 10, 0.1, 0.2, 0.5 μmol/kg TIW) is on record?
**A.** excessive toxicity

**Q.** What about the “change in percent body weight” value ([4]; FIG. 10, 0.1, 0.2, 0.5 μmol/kg TIW, compared to controls) of the same compound?
**A.** dramatic change

**Q.** What about the “complete or partial responses” value [7] of the same compound?
**A.** 0/5
